Test results as given in the supplement of paper PMC9112550, “Optimization of the antimicrobial peptide Bac7 by deep mutational scanning” (BMC Biology, 2022).

Test system: Escherichia coli TOP10
Test: shrunken log2 fold change of peptide-encoding DNA abundance (4.5 h post-induction vs induction); higher = less antimicrobial activity (less host growth inhibition)
Details: time post-induction: 4.5 h; library: site-saturation at positions 5, 18, 19, 20
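Note: peptides expressed intracellularly from a pBAD plasmid library in pooled LB shake-flask culture, induced with 0.3% L-arabinose, DNA abundance read by NGS, three biological replicates, DESeq2 with apeglm shrinkage.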

RRIRFRPPRLPRPRPRPRCLPRP
shrunken log2 fold change: -0.124

RRIRQRPPRLPRPRPRPRAKPRP
shrunken log2 fold change: 0.0777

RRIRDRPPRLPRPRPRPKKHPRP
shrunken log2 fold change: -0.0344

RRIRVRPPRLPRPRPRPLLEPRP
shrunken log2 fold change: 0.0931

RRIRERPPRLPRPRPRPMAQPRP
shrunken log2 fold change: 0.00812

RRIRERPPRLPRPRPRPCQTPRP
shrunken log2 fold change: -0.397

RRIRYRPPRLPRPRPRPNRRPRP
shrunken log2 fold change: -0.023

RRIRHRPPRLPRPRPRPERCPRP
shrunken log2 fold change: -0.078

RRIRYRPPRLPRPRPRPHAFPRP
shrunken log2 fold change: 0.0566

RRIRWRPPRLPRPRPRPCWRPRP
shrunken log2 fold change: 0.0637

RRIRCRPPRLPRPRPRPCYQPRP
shrunken log2 fold change: -0.182

RRIRIRPPRLPRPRPRPCLAPRP
shrunken log2 fold change: -0.693

RRIRWRPPRLPRPRPRPYHGPRP
shrunken log2 fold change: -0.327

RRIRPRPPRLPRPRPRPHFTPRP
shrunken log2 fold change: -0.302

RRIRTRPPRLPRPRPRPIFTPRP
shrunken log2 fold change: -0.0602

RRIRQRPPRLPRPRPRPHAQPRP
shrunken log2 fold change: 0.384

RRIRPRPPRLPRPRPRPARMPRP
shrunken log2 fold change: 0.487

RRIRWRPPRLPRPRPRPSWIPRP
shrunken log2 fold change: 0.0261

RRIRVRPPRLPRPRPRPQKNPRP
shrunken log2 fold change: -0.217

RRIRIRPPRLPRPRPRPPGCPRP
shrunken log2 fold change: 0.354

RRIRRRPPRLPRPRPRPNIGPRP
shrunken log2 fold change: -0.89

RRIRIRPPRLPRPRPRPNLHPRP
shrunken log2 fold change: -0.623

RRIRKRPPRLPRPRPRPSSNPRP
shrunken log2 fold change: -0.0818

RRIRKRPPRLPRPRPRPEQTPRP
shrunken log2 fold change: 1.15

RRIRHRPPRLPRPRPRPPIQPRP
shrunken log2 fold change: 0.0855

RRIRARPPRLPRPRPRPSVLPRP
shrunken log2 fold change: -0.167

RRIRLRPPRLPRPRPRPWILPRP
shrunken log2 fold change: -0.0709

RRIRCRPPRLPRPRPRPVSCPRP
shrunken log2 fold change: 0.193

RRIRNRPPRLPRPRPRPVIAPRP
shrunken log2 fold change: -0.25

RRIRWRPPRLPRPRPRPLAKPRP
shrunken log2 fold change: 0.499

RRIRDRPPRLPRPRPRPTFIPRP
shrunken log2 fold change: -0.13

RRIRQRPPRLPRPRPRPDCHPRP
shrunken log2 fold change: -0.0897

RRIRTRPPRLPRPRPRPSYFPRP
shrunken log2 fold change: -0.85

RRIRVRPPRLPRPRPRPRFKPRP
shrunken log2 fold change: 0.107

RRIRDRPPRLPRPRPRPINHPRP
shrunken log2 fold change: -0.229

RRIRTRPPRLPRPRPRPYGLPRP
shrunken log2 fold change: 4.72

RRIRFRPPRLPRPRPRPPNMPRP
shrunken log2 fold change: -0.0513

RRIRSRPPRLPRPRPRPLFGPRP
shrunken log2 fold change: 0.157

RRIRERPPRLPRPRPRPHAQPRP
shrunken log2 fold change: -0.0243

RRIRARPPRLPRPRPRPGTKPRP
shrunken log2 fold change: 0.0261

RRIRGRPPRLPRPRPRPFSIPRP
shrunken log2 fold change: -0.0155

RRIRNRPPRLPRPRPRPDESPRP
shrunken log2 fold change: -0.109

RRIRQRPPRLPRPRPRPLMRPRP
shrunken log2 fold change: 0.345

RRIRYRPPRLPRPRPRPADVPRP
shrunken log2 fold change: -0.127

RRIRARPPRLPRPRPRPQSWPRP
shrunken log2 fold change: 0.322

RRIRSRPPRLPRPRPRPKWAPRP
shrunken log2 fold change: -0.117

RRIRLRPPRLPRPRPRPGAMPRP
shrunken log2 fold change: 0.34

RRIRIRPPRLPRPRPRPRDVPRP
shrunken log2 fold change: 0.000408

RRIRIRPPRLPRPRPRPGRFPRP
shrunken log2 fold change: 0.138

RRIRPRPPRLPRPRPRPMWQPRP
shrunken log2 fold change: 0.0423
